In the supplement of paper PMC10567573:

B1: HDAC6 (parent)
chain: ACAQLATGAACRLVEAVLSGEVLN
B2: SASS6 (parent)
chain: QKELQDVGQSLRIKEQEVCKLQEQ

Variants of: B1
Experiment: protein stability index of a GFP-peptide fusion (GPS, HEK-293T) (PSI 1-6); higher = more stable
Conditions: c terminus: a fixed tail appended
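Further: lentivirally expressed fusions sorted by FACS into six bins by GFP to DsRed ratio, PSI derived from sequencing read proportions per bin multiplied by bin number.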

Variant	protein stability index
ACAQLATGAACRLVPAVLSGEVLN [E15P]	1.05
ACAQLATGAACRLVHAVLSGEVLN [E15H]	4.01
ACAQLATGAACRLVNAVLSGEVLN [E15N]	2.52
ACAQLATGAACRLVEDVLSGEVLN [A16D]	2.78
ACAQLATGAACRLVEPVLSGEVLN [A16P]	2.28
ACAQLATGAACRLVELVLSGEVLN [A16L]	2.77
ACAQLATGAACRLVERVLSGEVLN [A16R]	2.18
ACAQLATGAACRLVEYVLSGEVLN [A16Y]	3.51
ACAQLATGAACRLVEAVLSGDVLN [E21D]	2.6
ACAQLATGAACRLVEAVLSGKVLN [E21K]	1.09
ACAQLATGAACRLVEAVLSGWVLN [E21W]	2.67
ACAQLATGAACRLVEAVLSGYVLN [E21Y]	3.01
ACAQLATGAACRLVEAVLSGNVLN [E21N]	3.96
ACAQLATGAACRLVEAVLSGCVLN [E21C]	2.87
ACAQLATGAACRLVEAVLSGIVLN [E21I]	3.07
ACAQLATGAACRLVEAVLSGELLN [V22L]	2.09
ACAQLATGAACRLVEAVLSGEDLN [V22D]	2.37
ACAQLATGAACRLVEAVLSGEHLN [V22H]	4.01
ACAQLATGAACRLVEAVLSGEMLN [V22M]	3.31
ACAQLATGAACRLVEAVLSGESLN [V22S]	1.36
ACAQLATGAACRLVEAVLSGEELN [V22E]	1.84
ACAQLATGAACRLVEAVLSGEALN [V22A]	3.65
ACAQLATGAACRLVEAVLSGEFLN [V22F]	2.71

Variant	protein stability index
ACAQLATGAACRLVEAVLSGEPLN [V22P]	2.42
ACAQLATGAACRLVEAVLSGEKLN [V22K]	1.01
ACAQLATGAACRLVEAVLSGEGLN [V22G]	2.44
ACAQLATGAACRLVEAVLSGEYLN [V22Y]	3.8
ACAQLATGAACRLVEAVLSEEVLN [G20E]	1.43
ACAQLATGAACRLVEAVLSSEVLN [G20S]	2.89
ACAQLATGAACRLVEAVLSDEVLN [G20D]	2.25
ACAQLATGAACRLVEAVLSLEVLN [G20L]	3.07
ACAQLATGAACRLVEAVLSPEVLN [G20P]	2.07
ACAQLATGAACRLVEAVLSREVLN [G20R]	2.86
ACAQLATGAACRLVEAVLSFEVLN [G20F]	3.97
ACAQLATGAACRLVEAVLSIEVLN [G20I]	2.15
ACAQLATGAACRLVEAVLSGEVAN [L23A]	2.22
ACAQLATGAACRLVEAVLSGEVNN [L23N]	1.54
ACAQLATGAACRLVEAVLSGEVWN [L23W]	2.42
ACAQLATGAACRLVEAVLSGEVQN [L23Q]	1.05
ACAQLATGAACRLVEAVLSGEVPN [L23P]	1.96
ACAQLATGAACRLVEAVLSGEVKN [L23K]	1.7
ACAQLATGAACRLVEAVLSGEVYN [L23Y]	3.97
ACAQLATGAACRLVEAVLSGEVVN [L23V]	1.26
ACAQLATGAACRLVEAVLSGEVHN [L23H]	3.51
ACAQLATGAACRLVEAVLSGEVMN [L23M]	4.41
ACAQLATGAACRLVEAVLSGEVEN [L23E]	2.83

Variant	protein stability index
ACAQLATGAACRLVEAVLSGEVDN [L23D]	2.49
ACAQLATGARCRLVEAVLSGEVLN [A10R]	1.7
ACAQLATGAPCRLVEAVLSGEVLN [A10P]	2
ACAQLATGAQCRLVEAVLSGEVLN [A10Q]	1.71
ACAQLATGAICRLVEAVLSGEVLN [A10I]	2.01
ACAQLATGAYCRLVEAVLSGEVLN [A10Y]	1.49
ACAQLATGAKCRLVEAVLSGEVLN [A10K]	2.38
ACAQLATGAACRLVEAVLAGEVLN [S19A]	4.12
ACAQLATGAACRLVEAVLPGEVLN [S19P]	2.98
ACAQLATGAACRLQEAVLSGEVLN [V14Q]	2.74
ACAQLATGAACRLKEAVLSGEVLN [V14K]	1.97
ACAQLATGAACRLAEAVLSGEVLN [V14A]	2.05
ACAQLATGAACRLNEAVLSGEVLN [V14N]	3.78
ACAQLATGAACRLDEAVLSGEVLN [V14D]	2.53
ACAQLATGAACRLTEAVLSGEVLN [V14T]	1.75
ACAQLATGAACRLMEAVLSGEVLN [V14M]	3.28
ACAQLATGAACRLCEAVLSGEVLN [V14C]	3.54
ACAQLATGAACRLSEAVLSGEVLN [V14S]	2.15
ACAQLATGAACRLGEAVLSGEVLN [V14G]	2.17
ACAQLATGAACRLHEAVLSGEVLN [V14H]	2.56
ACAQLATGAACQLVEAVLSGEVLN [R12Q]	1.97
ACAQLATGAACTLVEAVLSGEVLN [R12T]	2.92
ACAQLATGAACMLVEAVLSGEVLN [R12M]	3.3

Variant	protein stability index
ACAQLATGAACPLVEAVLSGEVLN [R12P]	2.66
ACAQLATGAACYLVEAVLSGEVLN [R12Y]	3.46
ACAQLATGAACALVEAVLSGEVLN [R12A]	2.3
ACAQLATGAACSLVEAVLSGEVLN [R12S]	1.65
ACAQLATGAACNLVEAVLSGEVLN [R12N]	2.52
ACAQLATGAACGLVEAVLSGEVLN [R12G]	1.26
ACAQLATGAACDLVEAVLSGEVLN [R12D]	1.48
ACAQLATGAACRLVEAVTSGEVLN [L18T]	2.02
ACAQLATGAACRLVEAVDSGEVLN [L18D]	3.68
ACAQLATGAACRLVEAVKSGEVLN [L18K]	2.1
ACAQLATGAACRLVEAVSSGEVLN [L18S]	2.04
ACAQLATGAACRLVEAVASGEVLN [L18A]	1.69
ACAQLATGAACRLVEAVCSGEVLN [L18C]	1.45
ACAQLATGAACRLVEAVHSGEVLN [L18H]	2.47
ACAQLATGAACRLVEAVYSGEVLN [L18Y]	3.82
ACAQLATGAACRLVEAVQSGEVLN [L18Q]	2.2
ACAQLATGAACRLVEAVMSGEVLN [L18M]	3.05
ACAQLATGAACRLVEAVRSGEVLN [L18R]	2.29
ACAQLATGAACRLVEAVPSGEVLN [L18P]	3.73
ACAQLATGAAPRLVEAVLSGEVLN [C11P]	2.27
ACAQLATGAAARLVEAVLSGEVLN [C11A]	2.9
ACAQLATGAAERLVEAVLSGEVLN [C11E]	1.04
ACAQLATGAARRLVEAVLSGEVLN [C11R]	1.78

Variant	protein stability index
ACAQLATGAAKRLVEAVLSGEVLN [C11K]	2.29
ACAQLATGAACRLVEAVLSGEVLF [N24F]	1.85
ACAQLATGAACRLVEAVLSGEVLK [N24K]	2.61
ACAQLATGAACRLVEAVLSGEVLD [N24D]	1.87
ACAQLATGAACRLVEAHLSGEVLN [V17H]	2.75
ACAQLATGAACRLVEAPLSGEVLN [V17P]	2.5
ACAQLATGAACRLVEAQLSGEVLN [V17Q]	1.85
ACAQLATGAACRLVEATLSGEVLN [V17T]	2.04
ACAQLATGAACRLVEADLSGEVLN [V17D]	3.56
ACAQLATGAACRLVEASLSGEVLN [V17S]	1.93
ACAQLATGAACRHVEAVLSGEVLN [L13H]	3.21
ACAQLATGAACRTVEAVLSGEVLN [L13T]	1.93
ACAQLATGAACRSVEAVLSGEVLN [L13S]	1.68
ACAQLATGAACRDVEAVLSGEVLN [L13D]	3.58
ACAQLATGAACRPVEAVLSGEVLN [L13P]	2.53
ACAQLATGAACRNVEAVLSGEVLN [L13N]	2.06
ACAQLATGAACRRVEAVLSGEVLN [L13R]	2.5
ACAQLATGAACRKVEAVLSGEVLN [L13K]	3.91
ACAQLATGAACRMVEAVLSGEVLN [L13M]	2.93

Variants of: B2
Experiment: as above
Conditions: c terminus: a fixed tail appended

Variant	protein stability index
QFELQDVGQSLRIKEQEVCKLQEQ [K2F]	4.02
QHELQDVGQSLRIKEQEVCKLQEQ [K2H]	5.46
QDELQDVGQSLRIKEQEVCKLQEQ [K2D]	5.26
QGELQDVGQSLRIKEQEVCKLQEQ [K2G]	4.65
QPELQDVGQSLRIKEQEVCKLQEQ [K2P]	4.2
QIELQDVGQSLRIKEQEVCKLQEQ [K2I]	4.88
QYELQDVGQSLRIKEQEVCKLQEQ [K2Y]	4.98
QAELQDVGQSLRIKEQEVCKLQEQ [K2A]	4.58
QLELQDVGQSLRIKEQEVCKLQEQ [K2L]	4.97
QMELQDVGQSLRIKEQEVCKLQEQ [K2M]	5.1
QTELQDVGQSLRIKEQEVCKLQEQ [K2T]	5.34
QEELQDVGQSLRIKEQEVCKLQEQ [K2E]	5.48
QCELQDVGQSLRIKEQEVCKLQEQ [K2C]	5.29
QSELQDVGQSLRIKEQEVCKLQEQ [K2S]	5.43
QKWLQDVGQSLRIKEQEVCKLQEQ [E3W]	3.84
QKILQDVGQSLRIKEQEVCKLQEQ [E3I]	4.37
QKKLQDVGQSLRIKEQEVCKLQEQ [E3K]	4.63
QKYLQDVGQSLRIKEQEVCKLQEQ [E3Y]	4.4
QKVLQDVGQSLRIKEQEVCKLQEQ [E3V]	4.52
QKNLQDVGQSLRIKEQEVCKLQEQ [E3N]	4.88
QKGLQDVGQSLRIKEQEVCKLQEQ [E3G]	4.68
QKFLQDVGQSLRIKEQEVCKLQEQ [E3F]	3.29
QKLLQDVGQSLRIKEQEVCKLQEQ [E3L]	4.92
QKPLQDVGQSLRIKEQEVCKLQEQ [E3P]	3.71
QKALQDVGQSLRIKEQEVCKLQEQ [E3A]	4.92
QKCLQDVGQSLRIKEQEVCKLQEQ [E3C]	4.83

Variant	protein stability index
QKMLQDVGQSLRIKEQEVCKLQEQ [E3M]	4.02
QKDLQDVGQSLRIKEQEVCKLQEQ [E3D]	5.34
QKHLQDVGQSLRIKEQEVCKLQEQ [E3H]	4.39
QKTLQDVGQSLRIKEQEVCKLQEQ [E3T]	5.08
QKSLQDVGQSLRIKEQEVCKLQEQ [E3S]	5.1
QKRLQDVGQSLRIKEQEVCKLQEQ [E3R]	5.25
QKQLQDVGQSLRIKEQEVCKLQEQ [E3Q]	4.68
QKEWQDVGQSLRIKEQEVCKLQEQ [L4W]	4.82
QKEYQDVGQSLRIKEQEVCKLQEQ [L4Y]	4.98
QKERQDVGQSLRIKEQEVCKLQEQ [L4R]	4.96
QKENQDVGQSLRIKEQEVCKLQEQ [L4N]	5.1
QKEAQDVGQSLRIKEQEVCKLQEQ [L4A]	5.25
QKEGQDVGQSLRIKEQEVCKLQEQ [L4G]	5.59
QKEIQDVGQSLRIKEQEVCKLQEQ [L4I]	5.34
QKEPQDVGQSLRIKEQEVCKLQEQ [L4P]	5.34
QKEHQDVGQSLRIKEQEVCKLQEQ [L4H]	5.68
QKEDQDVGQSLRIKEQEVCKLQEQ [L4D]	5.57
QKESQDVGQSLRIKEQEVCKLQEQ [L4S]	5.41
QKEMQDVGQSLRIKEQEVCKLQEQ [L4M]	3.98
QKEVQDVGQSLRIKEQEVCKLQEQ [L4V]	5.28
QKEQQDVGQSLRIKEQEVCKLQEQ [L4Q]	4.24
QKEKQDVGQSLRIKEQEVCKLQEQ [L4K]	4.87
QKECQDVGQSLRIKEQEVCKLQEQ [L4C]	4.06
QKEFQDVGQSLRIKEQEVCKLQEQ [L4F]	5.11
QKETQDVGQSLRIKEQEVCKLQEQ [L4T]	5.23
QKELNDVGQSLRIKEQEVCKLQEQ [Q5N]	5.3

Variant	protein stability index
QKELTDVGQSLRIKEQEVCKLQEQ [Q5T]	5.41
QKELGDVGQSLRIKEQEVCKLQEQ [Q5G]	5.69
QKELDDVGQSLRIKEQEVCKLQEQ [Q5D]	5.37
QKELCDVGQSLRIKEQEVCKLQEQ [Q5C]	5.7
QKELSDVGQSLRIKEQEVCKLQEQ [Q5S]	5.16
QKELLDVGQSLRIKEQEVCKLQEQ [Q5L]	2.94
QKELMDVGQSLRIKEQEVCKLQEQ [Q5M]	5.16
QKELKDVGQSLRIKEQEVCKLQEQ [Q5K]	5.7
QKELRDVGQSLRIKEQEVCKLQEQ [Q5R]	4.41
QKELIDVGQSLRIKEQEVCKLQEQ [Q5I]	5.02
QKELHDVGQSLRIKEQEVCKLQEQ [Q5H]	4.91
QKELFDVGQSLRIKEQEVCKLQEQ [Q5F]	4.27
FKELQDVGQSLRIKEQEVCKLQEQ [Q1F]	4.25
CKELQDVGQSLRIKEQEVCKLQEQ [Q1C]	4.99
NKELQDVGQSLRIKEQEVCKLQEQ [Q1N]	5.75
VKELQDVGQSLRIKEQEVCKLQEQ [Q1V]	4.88
HKELQDVGQSLRIKEQEVCKLQEQ [Q1H]	5.51
PKELQDVGQSLRIKEQEVCKLQEQ [Q1P]	4.91
MKELQDVGQSLRIKEQEVCKLQEQ [Q1M]	4.5
YKELQDVGQSLRIKEQEVCKLQEQ [Q1Y]	4.78
KKELQDVGQSLRIKEQEVCKLQEQ [Q1K]	5.22
SKELQDVGQSLRIKEQEVCKLQEQ [Q1S]	4.63
LKELQDVGQSLRIKEQEVCKLQEQ [Q1L]	4.46
EKELQDVGQSLRIKEQEVCKLQEQ [Q1E]	5.94
TKELQDVGQSLRIKEQEVCKLQEQ [Q1T]	4.55
